Experiments:
[1] = system: HeLa Kyoto; experiment: solubility in G1/S (NP-40 vs SDS abundance) (log2 ratio); higher = more soluble; conditions: cell cycle stage: G1/S
[2] = system: HeLa Kyoto; experiment: melting temperature (median over replicates), in situ; higher = more thermally stable
[3] = system: HeLa Kyoto; experiment: solubility change mitosis vs G1/S (difference of NP-40 vs SDS log2 ratios) (log2 ratio difference); higher = more soluble in mitosis
[4] = system: HeLa Kyoto; experiment: thermal stability score vs G1/S (z-score of summed log2 fold changes over temperatures); higher = more thermally stable than in G1/S
[5] = cell cycle stage: early G1 (4.5 h after nocodazole release)
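For melting temperature (median over replicates), in situ in this document: HeLa Kyoto cells synchronized by double thymidine or nocodazole block, proteins quantified by TMT10plex mass spectrometry, three independent biological replicates.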
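For solubility change mitosis vs G1/S (difference of NP-40 vs SDS log2 ratios) in this document: synchronized HeLa Kyoto cells (double thymidine block for G1/S, nocodazole release for mitosis), protein amounts in NP-40 versus SDS lysates quantified by mass spectrometry, three biological replicates.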
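For solubility in G1/S (NP-40 vs SDS abundance) in this document: HeLa Kyoto cells arrested at G1/S by double thymidine block, proteins quantified by TMT10plex mass spectrometry in mild NP-40 versus SDS extracts, three biological replicates.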
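For thermal stability score vs G1/S (z-score of summed log2 fold changes over temperatures) in this document: synchronized HeLa Kyoto cells, proteins quantified by TMT10plex mass spectrometry, three biological replicates, mitosis taken 0.5 h after nocodazole release, G1/S directly after double thymidine block.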

Row | Substance | solubility in G1/S (log2) [1] | melting temperature ([2]; cell cycle stage: G1/S) [°C] | melting temperature ([2]; cell cycle stage: mitosis) [°C] | solubility change mitosis (log2) [3] | thermal stability score [4, 5] | thermal stability score ([4]; cell cycle stage: mitosis)
1 | MAAAAAAVGPGAGGAGSAVPGGAGPCATVSVFPGARLLTIGDANGEIQRHAEQQALRLEVRAGPDSAGIALYSHEDVCVFKCSVSRETECSRVGKQSFIITLGCNSVLIQFATPNDFCSFYNILKTCRGHTLERSVFSERTEESSAVQYFQFYGYLSQQQNMMQDYVRTGTYQRAILQNHTDFKDKIVLDVGCGSGILSFFAAQAGARKIYAVEASTMAQHAEVLVKSNNLTDRIVVIPGKVEEVSLPEQVDIIISEPMGYMLFNERMLESYLHAKKYLKPSGNMFPTIGDVHLAPFTDEQLYMEQFTKANFWYQPSFHGVDLSALRGAAVDEYFRQPVVDTFDIRILMAKSVKYTVNFLEAKEGDLHRIEIPFKFHMLHSGLVHGLAFWFDVAFIGSIMTVWLSTAPTEPLTHWYQVRCLFQSPLFAKAGDTLSGTCLLIANKRQSYDISIVAQVDQTGSKSSNLLDLKNPFFRYTGTTPSPPPGSHYTSPSENMWNTGSTYNLSSGMAVAGMPTAYDLSSVIASGSSVGHNNLIPLANTGIVNHTHSRMGSIMSTGIVQGSSGAQGSGGGSTSAHYAVNSQFTMGGPAISMASPMSIPTNTMHYGS [CARM1] | -0.0215 | 56 | 56.3 | -0.216 | -1.1 | -1.42
2 | MAEVSIDQSKLPGVKEVCRDFAVLEDHTLAHSLQEQEIEHHLASNVQRNRLVQHDLQVAKQLQEEDLKAQAQLQKRYKDLEQQDCEIAQEIQEKLAIEAERRRIQEKKDEDIARLLQEKELQEEKKRKKHFPEFPATRAYADSYYYEDGGMKPRVMKEAVSTPSRMAHRDQEWYDAEIARKLQEEELLATQVDMRAAQVAQDEEIARLLMAEEKKAYKKAKEREKSSLDKRKQDPEWKPKTAKAANSKSKESDEPHHSKNERPARPPPPIMTDGEDADYTHFTNQQSSTRHFSKSESSHKGFHYKH [CCDC50] | 0.334 | 57.7 | 55 | 0.182 | -5.07 | -1.65
3 | RPE | 0.306 | 56 | 55.2 | 0.356 | -0.485 | -1.28
4 | TACC3 | 0.351 | 53.3 | 53.1 | 0.304 | -0.722 | 1.13
5 | MAELDIGQHCQVEHCRQRDFLPFVCDDCSGIFCLEHRSRESHGCPEVTVINERLKTDQHTSYPCSFKDCAERELVAVICPYCEKNFCLRHRHQSDHECEKLEIPKPRMAATQKLVKDIIDSKTGETASKRWKGAKNSETAAKVALMKLKMHADGDKSLPQTERIYFQVFLPKGSKEKSKPMFFCHRWSIGKAIDFAASLARLKNDNNKFTAKKLRLCHITSGEALPLDHTLETWIAKEDCPLYNGGNIILEYLNDEEQFCKNVESYLE [ZFAND1] | 0.496 | 50.6 | 49.9 | -0.173 | -0.0516 | 1.54
6 | SPCS2 | 0.173 | 51.9 | 52.8 | -0.0337 | -0.361 | -0.329
7 | MATPVVTKTAWKLQEIVAHASNVSSLVLGKASGRLLATGGDDCRVNLWSINKPNCIMSLTGHTSPVESVRLNTPEELIVAGSQSGSIRVWDLEAAKILRTLMGHKANICSLDFHPYGEFVASGSQDTNIKLWDIRRKGCVFRYRGHSQAVRCLRFSPDGKWLASAADDHTVKLWDLTAGKMMSEFPGHTGPVNVVEFHPNEYLLASGSSDRTIRFWDLEKFQVVSCIEGEPGPVRSVLFNPDGCCLYSGCQDSLRVYGWEPERCFDVVLVNWGKVADLAICNDQLIGVAFSQSNVSSYVVDLTRVTRTGTVARDPVQDHRPLAQPLPNPSAPLRRIYERPSTTCSKPQRVKQNSESERRSPSSEDDRDERESRAEIQNAEDYNEIFQPKNSISRTPPRRSEPFPAPPEDDAATAKEAAKPSPAMDVQFPVPNLEVLPRPPVVASTPAPKAEPAIIPATRNEPIGLKASDFLPAVKIPQQAELVDEDAMSQIRKGHDTMCVVLTSRHKNLDTVRAVWTMGDIKTSVDSAVAINDLSVVVDLLNIVNQKASLWKLDLCTTVLPQIEKLLQSKYESYVQTGCTSLKLILQRFLPLITDMLAAPPSVGVDISREERLHKCRLCYKQLKSISGLVKSKSGLSGRHGSTFRELHLLMASLD [KATNB1] | -0.135 | 50.5 | 51 | -0.0538 | 0.62 | 0.499

From the supplement of paper PMC5998384
